# Data: publication PMC10958042
# B1: ATGL (PNPLA2, patatin-like phospholipase domain-containing protein 2), human, full length / perilipin-1, mouse (mPlin1) (parent)
# chain 1: MFPREKTWNISFAGCGFLGVYYVGVASCLREHAPFLVANATHIYGASAGALTATALVTGVCLGEAGAKFIEVSKEARKRFLGPLHPSFNLVKIIRSFLLKVLPADSHEHASGRLGISLTRVSDGENVIISHFNSKDELIQANVCSGFIPVYCGLIPPSLQGVRYVDGGISDNLPLYELKNTITVSPFSGESDICPQDSSTNIHELRVTNTSIQFNLRNLYRLSKALFPPEPLVLREMCKQGYRDGLRFLQRNGLLNRPNPLLALPPARPHGPEDKDQAVESAQAEDYSQLPGEDHILEHLPARLNEALLEACVEPTDLLTTLSNMLPVRLATAMMVPYTLPLESALSFTIRLLEWLPDVPEDIRWMKEQTGSICQYLVMRAKRKLGRHLPSRLPEQVELRRVQSLPSVPLSCAAYREALPGWMRNNLSLGDALAKWEECQRQLLLGLFCTNVAFPPEALRMRAPADPAPAPADPASPQHQLAGPAPLLSTPAPEARPVIGALGL
# chain 2: MSMNKGPTLLDGDLPEQENVLQRVLQLPVVSGTCECFQKTYNSTKEAHPLVASVCNAYEKGVQGASNLAAWSMEPVVRRLSTQFTAANELACRGLDHLEEKIPALQYPPEKIASELKGTISTRLRSARNSISVPIASTSDKVLGATLAGCELALGMAKETAEYAANTRVGRLASGGADLALGSIEKVVEFLLPPDKESAPSSGRQRTQKAPKAKPSLVRRVSTLANTLSRHTMQTTAWALKQGHSLAMWIPGVAPLSSLAQWGASAAMQVVSRRQSEVRVPWLHNLAASQDESHDDQTDTEGEETDDEEEEEESEAEENVLREVTALPNPRGLLGGVVHTVQNTLRNTISAVTWAPAAVLGTVGRILHLTPAQAVSSTKGRAMSLSDALKGVTDNVVDTVVHYVPLPRLSLMEPESEFRDIDNPSAEAERKGSGARPASPESTPRPGQPRGSLRSVRGLSAPSCPGLDDKTEASARPGFLAMPREKPARRVSDSFFRPSVMEPILGRAQYSQLRKKS
# B2: ATGL (PNPLA2, patatin-like phospholipase domain-containing protein 2), human, full length / CGI-58 (ABHD5, 1-acylglycerol-3-phosphate O-acyltransferase ABHD5), human (parent)
# chain 1: B1 chain 1
# chain 2: MAAEEEEVDSADTGERSGWLTGWLPTWCPTSISHLKEAEEKMLKCVPCTYKKEPVRISNGNKIWTLKFSHNISNKTPLVLLHGFGGGLGLWALNFGDLCTNRPVYAFDLLGFGRSSRPRFDSDAEEVENQFVESIEEWRCALGLDKMILLGHNLGGFLAAAYSLKYPSRVNHLILVEPWGFPERPDLADQDRPIPVWIRALGAALTPFNPLAGLRIAGPFGLSLVQRLRPDFKRKYSSMFEDDTVTEYIYHCNVQTPSGETAFKNMTIPYGWAKRPMLQRIGKMHPDIPVSVIFGARSCIDGNSGTSIQSLRPHSYVKTIAILGAGHYVYADQPEEFNQKVKEICDTVD
# Variants of: B1
# Assay: LUMIER: Protein A-ATGL variant and firefly luciferase-partner co-expressed in HEK293T, lysates immunoprecipitated on IgG-coated plates, co-precipitated partner measured as luciferase luminescence
# Conditions: with perilipin-1, mouse (mPlin1), transient co-transfection, IgG-coated LUMITRAC plates, 2 h at 4 °C, three PBS washes, Bright-Glo luciferase reagent, triplicates per assay, two …, parent: 0.26, not graded, scale: log2 fold change of co-immunoprecipitated luminescence relative to wild-type ATGL within each experiment
row,Variant,screen value
1,chain 1 G16K,0.265
2,chain 1 K275A,-0.55
3,chain 1 K92L,0.107
4,chain 1 E314A,-0.247
5,chain 1 A453E,0.218
6,chain 1 A434L,0.0211
7,chain 1 F35A,-0.185
8,chain 1 F35E,-0.17
9,chain 1 G189E,-1
10,chain 1 L62A,0.475
11,chain 1 L62K,0.457
12,chain 1 G59L,-0.00134
13,chain 1 F348E,0.112
14,chain 1 E125L,-0.268
15,chain 1 L102K,-1.19
16,chain 1 E368A,-0.0883
17,chain 1 G66A,-0.406
18,chain 1 G66L,-0.803
19,chain 1 G153A,-0.209
20,chain 1 G153K,-0.674
21,chain 1 H109E,-0.442
22,chain 1 I70K,-0.495
23,chain 1 I70A,-0.501
24,chain 1 A104E,-1.07

# Other lines, results leading:
row,screen value,Variant
1,-0.0219,chain 1 Y415A
2,0.128,chain 1 R113L
3,-0.0594,chain 1 R113K
4,-0.529,chain 1 S106K
5,-0.552,chain 1 P156K
6,-0.504,chain 1 R163K
7,0.0463,chain 1 R95L
8,-0.788,chain 1 R95K
9,-0.0832,chain 1 N39E
10,-0.624,chain 1 L261E
11,-0.915,chain 1 L159A
12,-1.36,chain 1 P103K
13,0.313,chain 1 Q396A
14,0.0206,chain 1 S87A
15,-0.527,chain 1 S87E
16,-0.664,chain 1 L178A
17,-0.452,chain 1 S158E
18,-0.232,chain 1 S158A
19,-0.000717,chain 1 R351L
20,-0.0364,chain 1 T41A
21,-0.8,chain 1 P86K
22,-0.304,chain 1 V127L
23,-0.205,chain 1 V328A
24,0.0119,chain 1 N180L
25,-0.67,chain 1 P258L
26,-0.367,chain 1 R329E
27,-0.355,chain 1 Q140K
28,-0.00146,chain 1 Q140A

# Same assay, conditions: with perilipin-1, mouse (mPlin1), transient co-transfection, IgG-coated LUMITRAC plates, 2 h at 4 °C, three PBS washes, Bright-Glo luciferase reagent, triplicates per assay, two …, parent: -0.37, not graded, scale: log2 fold change of co-immunoprecipitated luminescence relative to wild-type ATGL within each experiment
row,Variant,screen value
1,chain 1 G16K,0.718
2,chain 1 K275A,-0.709
3,chain 1 K92L,0.166
4,chain 1 E314A,0.211
5,chain 1 A453E,0.0778
6,chain 1 A434L,0.452
7,chain 1 F35A,-0.158
8,chain 1 F35E,-0.197
9,chain 1 G189E,-1.43
10,chain 1 L62A,-0.248
11,chain 1 L62K,0.284
12,chain 1 G59L,-0.613
13,chain 1 F348E,-0.626
14,chain 1 E125L,-0.225
15,chain 1 L102K,-0.807
16,chain 1 E368A,-0.602
17,chain 1 G66A,0.198
18,chain 1 G66L,-0.433
19,chain 1 G153A,-0.215
20,chain 1 G153K,-0.772
21,chain 1 H109E,-0.386
22,chain 1 I70K,-0.759
23,chain 1 I70A,-0.781
24,chain 1 A104E,-0.823

# More lines, now with the values ahead:
row,screen value,Variant
1,-0.00379,chain 1 Y415A
2,0.163,chain 1 R113L
3,0.272,chain 1 R113K
4,-0.667,chain 1 S106K
5,-0.726,chain 1 P156K
6,-0.582,chain 1 R163K
7,0.332,chain 1 R95L
8,-0.635,chain 1 R95K
9,-0.558,chain 1 N39E
10,-1.14,chain 1 L261E
11,0.395,chain 1 L159A
12,-0.898,chain 1 P103K
13,-0.0639,chain 1 Q396A
14,-0.536,chain 1 S87A
15,-0.625,chain 1 S87E
16,-0.376,chain 1 S158E
17,0.188,chain 1 S158A
18,-0.298,chain 1 R351L
19,-0.45,chain 1 T41A
20,-0.498,chain 1 P86K
21,-0.288,chain 1 V127L
22,-0.0406,chain 1 V328A
23,-0.626,chain 1 N180L
24,-1.35,chain 1 P258L
25,-0.537,chain 1 R329E
26,0.00731,chain 1 Q140K
27,-0.191,chain 1 Q140A

# Same assay, conditions: with perilipin-1, mouse (mPlin1), transient co-transfection, IgG-coated LUMITRAC plates, 2 h at 4 °C, three PBS washes, Bright-Glo luciferase reagent, triplicates per assay, two …, parent: -0.37, not graded, value at the no-binding floor (a bound), scale: log2 fold change of co-immunoprecipitated luminescence relative to wild-type ATGL within each experiment
row,Variant,screen value
1,chain 1 L178A,-1.6

# Variants of: B2
# Assay: as above
# Conditions: with CGI-58 (ABHD5, 1-acylglycerol-3-phosphate O-acyltransferase ABHD5), transient co-transfection, IgG-coated LUMITRAC plates, 2 h at 4 °C, three PBS washes, Bright-Glo luciferase reagent, triplicates per assay, two …, parent: 0.32, not graded, scale: log2 fold change of co-immunoprecipitated luminescence relative to wild-type ATGL within each experiment
row,Variant,screen value
1,chain 1 L102K,-0.532
2,chain 1 P86K,-0.174
3,chain 1 Q140K,-0.444
4,chain 1 Q140A,0.428
5,chain 1 P156K,-0.794
6,chain 1 S106K,-0.182

# Same assay, conditions: with CGI-58 (ABHD5, 1-acylglycerol-3-phosphate O-acyltransferase ABHD5), transient co-transfection, IgG-coated LUMITRAC plates, 2 h at 4 °C, three PBS washes, Bright-Glo luciferase reagent, triplicates per assay, two …, parent: 0.45, not graded, scale: log2 fold change of co-immunoprecipitated luminescence relative to wild-type ATGL within each experiment
row,Variant,screen value
1,chain 1 L102K,-0.83
2,chain 1 P86K,-0.669
3,chain 1 Q140K,0.322
4,chain 1 Q140A,0.0685
5,chain 1 P156K,-0.596
6,chain 1 S106K,-0.557
